B1: VTI1B (parent)
chain: ANETLAEMEEELRYAPLSFRNPMM

Variants of: B1
Test: protein stability index of a GFP-peptide fusion (GPS, HEK-293T) (PSI 1-6); higher = more stable
Details: c terminus: a fixed tail appended
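Also: lentivirally expressed fusions sorted by FACS into six bins by GFP to DsRed ratio, PSI derived from sequencing read proportions per bin multiplied by bin number.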

Point of comparison: ANCTLAEMEEELRYAPLSFRNPMM, protein stability index 2.01. Against it:
- ANETLAEMEAELRYAPLSFRNPMM — higher, 2.04
- ANETLAEMELELRYAPLSFRNPMM — higher, 2.05
- ANETLAEMEFELRYAPLSFRNPMM — higher, 2.75
- ANETLAEMEKELRYAPLSFRNPMM — higher, 2.73
- ANETLAEMEYELRYAPLSFRNPMM — lower, 1.69
- ANETLAEMEGELRYAPLSFRNPMM — lower, 1.49
- ANETLAEMEMELRYAPLSFRNPMM — lower, 1.87
- ANETLAEMEVELRYAPLSFRNPMM — lower, 1.82
- ANETLAEMEEEVRYAPLSFRNPMM — lower, 1.83
- ANETLAEMEEETRYAPLSFRNPMM — higher, 3.9
- ANETLAEMEEEERYAPLSFRNPMM — higher, 3.65
- ANETLAEMEEEQRYAPLSFRNPMM — higher, 3.33
- ANETLAEMEEEHRYAPLSFRNPMM — higher, 3.79
- ANETLAEMEEEKRYAPLSFRNPMM — higher, 3.27
- ANETLAEMEEELPYAPLSFRNPMM — higher, 2.75
- ANETLAEMEEELDYAPLSFRNPMM — higher, 3.02
- ANETLAEMEEELAYAPLSFRNPMM — higher, 2.04
- ANETLAEMEEELLYAPLSFRNPMM — lower, 1.7
- ANETLAEMEEYLRYAPLSFRNPMM — higher, 2.51
- ANETLAEMEEPLRYAPLSFRNPMM — higher, 2.17
- ANETLAEMEERLRYAPLSFRNPMM — higher, 2.31
- ANETLAEMEEALRYAPLSFRNPMM — lower, 2
- ANETLAEMEEVLRYAPLSFRNPMM — lower, 1.65
- ANETLAEMEECLRYAPLSFRNPMM — higher, 2.22
- ANETLAEMEEMLRYAPLSFRNPMM — higher, 2.45
- ANETLAEMEEELRYAPLRFRNPMM — higher, 3.8
- ANETLAEMEEELRYAPLYFRNPMM — higher, 3.25
- ANETLAEMEEELRYAPLGFRNPMM — higher, 3.19
- ANETLAEMEEELRYAPLCFRNPMM — higher, 2.24
- ANETLAEMEEELRYAPLLFRNPMM — higher, 3.19
- ANETLAEMEEELRYAPLTFRNPMM — lower, 1.79
- ANETLAEMEEELRYAPLQFRNPMM — higher, 3.35
- ANETLAEMEEELRYAPLKFRNPMM — higher, 3.81
- ANETLAEMEEELRYAPLNFRNPMM — higher, 2.23
- ANETLAEMEEELRYAPLMFRNPMM — higher, 2.81
- ANPTLAEMEEELRYAPLSFRNPMM — higher, 2.26
- ANQTLAEMEEELRYAPLSFRNPMM — higher, 2.53
- ANFTLAEMEEELRYAPLSFRNPMM — lower, 1.96
- ANITLAEMEEELRYAPLSFRNPMM — higher, 2.1
- ANWTLAEMEEELRYAPLSFRNPMM — higher, 2.29
- ANNTLAEMEEELRYAPLSFRNPMM — higher, 2.43
- ANYTLAEMEEELRYAPLSFRNPMM — lower, 1.94
- ANTTLAEMEEELRYAPLSFRNPMM — the same, 2.01
- ANETLAEMEEELRYAPLSFRNPLM — higher, 3.56
- ANETLAEMEEELRYAPLSFRNPQM — higher, 2.89
- ANETLAEMEEELRYAPLSFRNPFM — higher, 2.62
- ANETLAEMEEELRYAPLSFRNPGM — higher, 3.46
- ANETLAEMEEELRYAPLSFRNPMD — higher, 3.92
- ANETLAEMEEELRYAPLSFRNPMY — higher, 3.46
- ANETLAEMEEELRYAPLSFRNPMS — higher, 4.41
- ANETLAEMEEELRYAPLSFRNPMC — higher, 2.37
- ANETLAEMEEELRYAPLSFRNPMW — higher, 3.97
- ANETLAEMEEELRYAPLSFRNPMA — higher, 3.78
- ANETLAEMEEELRYAPLSFRNPMP — higher, 4.98
- ANETLAEMEEELRYAPLSFRNPMH — higher, 3.26
- ANETLAEMEEELRYAPLSFRNPME — higher, 4.67
- ANETLAEMVEELRYAPLSFRNPMM — lower, 1.66
- ANETLAEMAEELRYAPLSFRNPMM — higher, 2.44
- ANETLAEMWEELRYAPLSFRNPMM — lower, 1.3
- ANETLAEMPEELRYAPLSFRNPMM — higher, 3.22
- ANETLAEMGEELRYAPLSFRNPMM — higher, 2.19
- ANETLAEMMEELRYAPLSFRNPMM — higher, 2.19
- ANETLAEMNEELRYAPLSFRNPMM — higher, 2.87
- ANETLAEMREELRYAPLSFRNPMM — lower, 1.4
- ATETLAEMEEELRYAPLSFRNPMM — higher, 2.19
- ACETLAEMEEELRYAPLSFRNPMM — higher, 2.13
- AWETLAEMEEELRYAPLSFRNPMM — lower, 1.06
- AIETLAEMEEELRYAPLSFRNPMM — higher, 2.53
- AAETLAEMEEELRYAPLSFRNPMM — higher, 2.91
- ANETLAEMEEELRGAPLSFRNPMM — higher, 2.11
- ANETLAEMEEELRVAPLSFRNPMM — higher, 2.09
- ANETLAEMEEELREAPLSFRNPMM — higher, 3.66
- ANETLAEMEEELRFAPLSFRNPMM — higher, 2.06
- ANETLAEMEEELRAAPLSFRNPMM — higher, 2.48
- ANETLAEMEEELRTAPLSFRNPMM — higher, 2.53
- ANETLAEMEEELRWAPLSFRNPMM — lower, 1.32
- ANETLAEMEEELRNAPLSFRNPMM — higher, 2.62
- ANETLAEMEEELRYANLSFRNPMM — higher, 3.15
- ANETLAEMEEELRYAILSFRNPMM — higher, 2.43
- ANETLAEMEEELRYAKLSFRNPMM — higher, 2.92
- ANETLAEMEEELRYAHLSFRNPMM — higher, 2.64
- ANETLAEMEEELRYARLSFRNPMM — higher, 2.71
- ANETLAEMEEELRYAWLSFRNPMM — lower, 1.89
- ANETLAEMEEELRYACLSFRNPMM — lower, 1.92
- ANETLAEMEEELRYAALSFRNPMM — higher, 2.26
- ANETLAEMEEELRYAQLSFRNPMM — higher, 2.29
- ANETLAEMEEELRYAELSFRNPMM — higher, 2.66
- ANETLAEMEEELRYASLSFRNPMM — higher, 2.92
- CNETLAEMEEELRYAPLSFRNPMM — higher, 2.39
- QNETLAEMEEELRYAPLSFRNPMM — lower, 1.92
- INETLAEMEEELRYAPLSFRNPMM — lower, 1.91
- MNETLAEMEEELRYAPLSFRNPMM — higher, 2.65
- WNETLAEMEEELRYAPLSFRNPMM — higher, 2.82
- TNETLAEMEEELRYAPLSFRNPMM — higher, 2.36
- ENETLAEMEEELRYAPLSFRNPMM — higher, 2.72
- HNETLAEMEEELRYAPLSFRNPMM — higher, 2.16
- GNETLAEMEEELRYAPLSFRNPMM — higher, 3.02
- FNETLAEMEEELRYAPLSFRNPMM — lower, 1.81
- ANETLAFMEEELRYAPLSFRNPMM — higher, 2.1
- ANETLACMEEELRYAPLSFRNPMM — the same, 2.01
- ANETLARMEEELRYAPLSFRNPMM — lower, 1.17
- ANETLAWMEEELRYAPLSFRNPMM — lower, 1.57
- ANETLADMEEELRYAPLSFRNPMM — higher, 2.69
- ANESLAEMEEELRYAPLSFRNPMM — higher, 2.58
- ANEFLAEMEEELRYAPLSFRNPMM — higher, 2.12
- ANENLAEMEEELRYAPLSFRNPMM — higher, 2.79
- ANEHLAEMEEELRYAPLSFRNPMM — lower, 1.83
- ANEELAEMEEELRYAPLSFRNPMM — higher, 3.26
- ANEMLAEMEEELRYAPLSFRNPMM — higher, 2.07
- ANEGLAEMEEELRYAPLSFRNPMM — higher, 2.39
- ANETLAEMEEELRYSPLSFRNPMM — lower, 1.61
- ANETLAEMEEELRYFPLSFRNPMM — lower, 1.39
- ANETLAEMEEELRYGPLSFRNPMM — higher, 3.44
- ANETLAEMEEELRYNPLSFRNPMM — higher, 2.64
- ANETLAEMEEELRYDPLSFRNPMM — higher, 3.7
- ANETLAEMEEELRYEPLSFRNPMM — higher, 3.56
- ANETLAEMEEELRYLPLSFRNPMM — higher, 2.03
- ANETLAEMEEELRYTPLSFRNPMM — higher, 2.06
- ANETLAEMEEELRYAPRSFRNPMM — higher, 2.93
- ANETLAEMEEELRYAPASFRNPMM — higher, 3.66
- ANETLAEMEEELRYAPHSFRNPMM — higher, 3.79
- ANETLAEMEEELRYAPDSFRNPMM — higher, 4.33
- ANETLAEMEEELRYAPWSFRNPMM — lower, 2
- ANETLAEMEEELRYAPTSFRNPMM — higher, 4.06
- ANETLAEMEEELRYAPSSFRNPMM — higher, 2.8
- ANETLAEMEEELRYAPQSFRNPMM — higher, 4.14
- ANETLAEMEEELRYAPYSFRNPMM — higher, 3.41
- ANETLAEPEEELRYAPLSFRNPMM — higher, 3.11
- ANETLAEHEEELRYAPLSFRNPMM — higher, 3.39
- ANETLAEAEEELRYAPLSFRNPMM — higher, 3.28
- ANETLAECEEELRYAPLSFRNPMM — higher, 2.94
- ANETLAEDEEELRYAPLSFRNPMM — higher, 3.37
- ANETLAEWEEELRYAPLSFRNPMM — lower, 1.51
- ANETLAEFEEELRYAPLSFRNPMM — higher, 2.51
- ANETLAEKEEELRYAPLSFRNPMM — higher, 2.4
- ANETLAEMEEELRYAPLSVRNPMM — higher, 3.28
- ANETLAEMEEELRYAPLSDRNPMM — higher, 4.85
- ANETLAEMEEELRYAPLSRRNPMM — higher, 4.18
- ANETLAEMEEELRYAPLSHRNPMM — higher, 4.26
- ANETLAEMEEELRYAPLSWRNPMM — higher, 3.24
- ANETLAEMEEELRYAPLSIRNPMM — higher, 3.73
- ANETLPEMEEELRYAPLSFRNPMM — higher, 2.51
- ANETLFEMEEELRYAPLSFRNPMM — higher, 3.33
- ANETLGEMEEELRYAPLSFRNPMM — higher, 2.17
- ANETLCEMEEELRYAPLSFRNPMM — higher, 2.12
- ANETLHEMEEELRYAPLSFRNPMM — higher, 2.4
- ANETLYEMEEELRYAPLSFRNPMM — higher, 2.18
- ANETLTEMEEELRYAPLSFRNPMM — lower, 1.79
- ANETLWEMEEELRYAPLSFRNPMM — higher, 2.05
- ANETLSEMEEELRYAPLSFRNPMM — higher, 2.73
- ANETLIEMEEELRYAPLSFRNPMM — lower, 1.85
- ANETLDEMEEELRYAPLSFRNPMM — higher, 3.76
- ANETLAEMEEELRYAPLSFRNEMM — higher, 3.97
- ANETLAEMEEELRYAPLSFRNCMM — higher, 3.25
- ANETLAEMEEELRYAPLSFRNFMM — higher, 2.67
- ANETLAEMEEELRYAPLSFRNSMM — higher, 3.48
- ANETLAEMEEELRYAPLSFRNQMM — higher, 4.11
- ANETLAEMEEELRYAPLSFRNNMM — higher, 3.58
- ANETLAEMEEELRYAPLSFRNWMM — higher, 3.03
- ANETLAEMEEELRYAPLSFRNYMM — higher, 3.38
- ANETLAEMEEELRYAPLSFHNPMM — lower, 1.7
- ANETLAEMEEELRYAPLSFYNPMM — higher, 2.12
- ANETLAEMEEELRYAPLSFLNPMM — higher, 2.57
- ANETLAEMEEELRYAPLSFQNPMM — lower, 1.72
- ANETLAEMEEELRYAPLSFVNPMM — lower, 1.71
- ANETLAEMEEELRYAPLSFNNPMM — lower, 1.51
- ANETLAEMEEELRYAPLSFWNPMM — higher, 2.48
- ANETLAEMEEELRYAPLSFSNPMM — higher, 2.03
- ANETLAEMEEELRYAPLSFFNPMM — higher, 2.63
- ANETLAEMEEELRYAPLSFKNPMM — higher, 3.36
- ANETLAEMEEELRYAPLSFRDPMM — higher, 3.12
- ANETLAEMEEELRYAPLSFRIPMM — higher, 2.92
- ANETLAEMEEELRYAPLSFRLPMM — higher, 3.13
- ANETLAEMEEELRYAPLSFRPPMM — higher, 3.58
- ANETLAEMEEELRYAPLSFRFPMM — higher, 3.35
- ANETLAEMEEELRYAPLSFRYPMM — higher, 3.39
- ANETLAEMEEELRYAPLSFRCPMM — higher, 2.71
- ANETLAEMEEELRYAPLSFRSPMM — higher, 3.41
- ANETLAEMEEELRYAPLSFREPMM — higher, 3.95
- ANETLAEMEEELRYAPLSFRAPMM — higher, 3.81
- ANETLAEMEEELRYAPLSFRHPMM — higher, 3.42
- ANETLAEMEEELRYAPLSFRGPMM — higher, 3.72
- ANETPAEMEEELRYAPLSFRNPMM — higher, 2.73
- ANETKAEMEEELRYAPLSFRNPMM — higher, 2.16
- ANETGAEMEEELRYAPLSFRNPMM — higher, 2.58
- ANETWAEMEEELRYAPLSFRNPMM — the same, 2.01
- ANETAAEMEEELRYAPLSFRNPMM — higher, 2.7

From the supplement of paper PMC10567573
